# Tests used:
# [1] = target: C. elegans UBR4 (C. elegans); experiment: not stated; molecular weight of the purified C. elegans UBR4 complex (Fig. S13A)
# human UBR4 (human) = human UBR4 (human) (UniProt Q5T4S7); experiment: mass photometry; isolated human UBR4/KCMF1/CALM1 complex, co-expressed in insect cells and purified via a tag on UBR4
# human UBR4, Q5T4S7 1-5183 (enzyme), sequence (Q5T4S7 whole entry): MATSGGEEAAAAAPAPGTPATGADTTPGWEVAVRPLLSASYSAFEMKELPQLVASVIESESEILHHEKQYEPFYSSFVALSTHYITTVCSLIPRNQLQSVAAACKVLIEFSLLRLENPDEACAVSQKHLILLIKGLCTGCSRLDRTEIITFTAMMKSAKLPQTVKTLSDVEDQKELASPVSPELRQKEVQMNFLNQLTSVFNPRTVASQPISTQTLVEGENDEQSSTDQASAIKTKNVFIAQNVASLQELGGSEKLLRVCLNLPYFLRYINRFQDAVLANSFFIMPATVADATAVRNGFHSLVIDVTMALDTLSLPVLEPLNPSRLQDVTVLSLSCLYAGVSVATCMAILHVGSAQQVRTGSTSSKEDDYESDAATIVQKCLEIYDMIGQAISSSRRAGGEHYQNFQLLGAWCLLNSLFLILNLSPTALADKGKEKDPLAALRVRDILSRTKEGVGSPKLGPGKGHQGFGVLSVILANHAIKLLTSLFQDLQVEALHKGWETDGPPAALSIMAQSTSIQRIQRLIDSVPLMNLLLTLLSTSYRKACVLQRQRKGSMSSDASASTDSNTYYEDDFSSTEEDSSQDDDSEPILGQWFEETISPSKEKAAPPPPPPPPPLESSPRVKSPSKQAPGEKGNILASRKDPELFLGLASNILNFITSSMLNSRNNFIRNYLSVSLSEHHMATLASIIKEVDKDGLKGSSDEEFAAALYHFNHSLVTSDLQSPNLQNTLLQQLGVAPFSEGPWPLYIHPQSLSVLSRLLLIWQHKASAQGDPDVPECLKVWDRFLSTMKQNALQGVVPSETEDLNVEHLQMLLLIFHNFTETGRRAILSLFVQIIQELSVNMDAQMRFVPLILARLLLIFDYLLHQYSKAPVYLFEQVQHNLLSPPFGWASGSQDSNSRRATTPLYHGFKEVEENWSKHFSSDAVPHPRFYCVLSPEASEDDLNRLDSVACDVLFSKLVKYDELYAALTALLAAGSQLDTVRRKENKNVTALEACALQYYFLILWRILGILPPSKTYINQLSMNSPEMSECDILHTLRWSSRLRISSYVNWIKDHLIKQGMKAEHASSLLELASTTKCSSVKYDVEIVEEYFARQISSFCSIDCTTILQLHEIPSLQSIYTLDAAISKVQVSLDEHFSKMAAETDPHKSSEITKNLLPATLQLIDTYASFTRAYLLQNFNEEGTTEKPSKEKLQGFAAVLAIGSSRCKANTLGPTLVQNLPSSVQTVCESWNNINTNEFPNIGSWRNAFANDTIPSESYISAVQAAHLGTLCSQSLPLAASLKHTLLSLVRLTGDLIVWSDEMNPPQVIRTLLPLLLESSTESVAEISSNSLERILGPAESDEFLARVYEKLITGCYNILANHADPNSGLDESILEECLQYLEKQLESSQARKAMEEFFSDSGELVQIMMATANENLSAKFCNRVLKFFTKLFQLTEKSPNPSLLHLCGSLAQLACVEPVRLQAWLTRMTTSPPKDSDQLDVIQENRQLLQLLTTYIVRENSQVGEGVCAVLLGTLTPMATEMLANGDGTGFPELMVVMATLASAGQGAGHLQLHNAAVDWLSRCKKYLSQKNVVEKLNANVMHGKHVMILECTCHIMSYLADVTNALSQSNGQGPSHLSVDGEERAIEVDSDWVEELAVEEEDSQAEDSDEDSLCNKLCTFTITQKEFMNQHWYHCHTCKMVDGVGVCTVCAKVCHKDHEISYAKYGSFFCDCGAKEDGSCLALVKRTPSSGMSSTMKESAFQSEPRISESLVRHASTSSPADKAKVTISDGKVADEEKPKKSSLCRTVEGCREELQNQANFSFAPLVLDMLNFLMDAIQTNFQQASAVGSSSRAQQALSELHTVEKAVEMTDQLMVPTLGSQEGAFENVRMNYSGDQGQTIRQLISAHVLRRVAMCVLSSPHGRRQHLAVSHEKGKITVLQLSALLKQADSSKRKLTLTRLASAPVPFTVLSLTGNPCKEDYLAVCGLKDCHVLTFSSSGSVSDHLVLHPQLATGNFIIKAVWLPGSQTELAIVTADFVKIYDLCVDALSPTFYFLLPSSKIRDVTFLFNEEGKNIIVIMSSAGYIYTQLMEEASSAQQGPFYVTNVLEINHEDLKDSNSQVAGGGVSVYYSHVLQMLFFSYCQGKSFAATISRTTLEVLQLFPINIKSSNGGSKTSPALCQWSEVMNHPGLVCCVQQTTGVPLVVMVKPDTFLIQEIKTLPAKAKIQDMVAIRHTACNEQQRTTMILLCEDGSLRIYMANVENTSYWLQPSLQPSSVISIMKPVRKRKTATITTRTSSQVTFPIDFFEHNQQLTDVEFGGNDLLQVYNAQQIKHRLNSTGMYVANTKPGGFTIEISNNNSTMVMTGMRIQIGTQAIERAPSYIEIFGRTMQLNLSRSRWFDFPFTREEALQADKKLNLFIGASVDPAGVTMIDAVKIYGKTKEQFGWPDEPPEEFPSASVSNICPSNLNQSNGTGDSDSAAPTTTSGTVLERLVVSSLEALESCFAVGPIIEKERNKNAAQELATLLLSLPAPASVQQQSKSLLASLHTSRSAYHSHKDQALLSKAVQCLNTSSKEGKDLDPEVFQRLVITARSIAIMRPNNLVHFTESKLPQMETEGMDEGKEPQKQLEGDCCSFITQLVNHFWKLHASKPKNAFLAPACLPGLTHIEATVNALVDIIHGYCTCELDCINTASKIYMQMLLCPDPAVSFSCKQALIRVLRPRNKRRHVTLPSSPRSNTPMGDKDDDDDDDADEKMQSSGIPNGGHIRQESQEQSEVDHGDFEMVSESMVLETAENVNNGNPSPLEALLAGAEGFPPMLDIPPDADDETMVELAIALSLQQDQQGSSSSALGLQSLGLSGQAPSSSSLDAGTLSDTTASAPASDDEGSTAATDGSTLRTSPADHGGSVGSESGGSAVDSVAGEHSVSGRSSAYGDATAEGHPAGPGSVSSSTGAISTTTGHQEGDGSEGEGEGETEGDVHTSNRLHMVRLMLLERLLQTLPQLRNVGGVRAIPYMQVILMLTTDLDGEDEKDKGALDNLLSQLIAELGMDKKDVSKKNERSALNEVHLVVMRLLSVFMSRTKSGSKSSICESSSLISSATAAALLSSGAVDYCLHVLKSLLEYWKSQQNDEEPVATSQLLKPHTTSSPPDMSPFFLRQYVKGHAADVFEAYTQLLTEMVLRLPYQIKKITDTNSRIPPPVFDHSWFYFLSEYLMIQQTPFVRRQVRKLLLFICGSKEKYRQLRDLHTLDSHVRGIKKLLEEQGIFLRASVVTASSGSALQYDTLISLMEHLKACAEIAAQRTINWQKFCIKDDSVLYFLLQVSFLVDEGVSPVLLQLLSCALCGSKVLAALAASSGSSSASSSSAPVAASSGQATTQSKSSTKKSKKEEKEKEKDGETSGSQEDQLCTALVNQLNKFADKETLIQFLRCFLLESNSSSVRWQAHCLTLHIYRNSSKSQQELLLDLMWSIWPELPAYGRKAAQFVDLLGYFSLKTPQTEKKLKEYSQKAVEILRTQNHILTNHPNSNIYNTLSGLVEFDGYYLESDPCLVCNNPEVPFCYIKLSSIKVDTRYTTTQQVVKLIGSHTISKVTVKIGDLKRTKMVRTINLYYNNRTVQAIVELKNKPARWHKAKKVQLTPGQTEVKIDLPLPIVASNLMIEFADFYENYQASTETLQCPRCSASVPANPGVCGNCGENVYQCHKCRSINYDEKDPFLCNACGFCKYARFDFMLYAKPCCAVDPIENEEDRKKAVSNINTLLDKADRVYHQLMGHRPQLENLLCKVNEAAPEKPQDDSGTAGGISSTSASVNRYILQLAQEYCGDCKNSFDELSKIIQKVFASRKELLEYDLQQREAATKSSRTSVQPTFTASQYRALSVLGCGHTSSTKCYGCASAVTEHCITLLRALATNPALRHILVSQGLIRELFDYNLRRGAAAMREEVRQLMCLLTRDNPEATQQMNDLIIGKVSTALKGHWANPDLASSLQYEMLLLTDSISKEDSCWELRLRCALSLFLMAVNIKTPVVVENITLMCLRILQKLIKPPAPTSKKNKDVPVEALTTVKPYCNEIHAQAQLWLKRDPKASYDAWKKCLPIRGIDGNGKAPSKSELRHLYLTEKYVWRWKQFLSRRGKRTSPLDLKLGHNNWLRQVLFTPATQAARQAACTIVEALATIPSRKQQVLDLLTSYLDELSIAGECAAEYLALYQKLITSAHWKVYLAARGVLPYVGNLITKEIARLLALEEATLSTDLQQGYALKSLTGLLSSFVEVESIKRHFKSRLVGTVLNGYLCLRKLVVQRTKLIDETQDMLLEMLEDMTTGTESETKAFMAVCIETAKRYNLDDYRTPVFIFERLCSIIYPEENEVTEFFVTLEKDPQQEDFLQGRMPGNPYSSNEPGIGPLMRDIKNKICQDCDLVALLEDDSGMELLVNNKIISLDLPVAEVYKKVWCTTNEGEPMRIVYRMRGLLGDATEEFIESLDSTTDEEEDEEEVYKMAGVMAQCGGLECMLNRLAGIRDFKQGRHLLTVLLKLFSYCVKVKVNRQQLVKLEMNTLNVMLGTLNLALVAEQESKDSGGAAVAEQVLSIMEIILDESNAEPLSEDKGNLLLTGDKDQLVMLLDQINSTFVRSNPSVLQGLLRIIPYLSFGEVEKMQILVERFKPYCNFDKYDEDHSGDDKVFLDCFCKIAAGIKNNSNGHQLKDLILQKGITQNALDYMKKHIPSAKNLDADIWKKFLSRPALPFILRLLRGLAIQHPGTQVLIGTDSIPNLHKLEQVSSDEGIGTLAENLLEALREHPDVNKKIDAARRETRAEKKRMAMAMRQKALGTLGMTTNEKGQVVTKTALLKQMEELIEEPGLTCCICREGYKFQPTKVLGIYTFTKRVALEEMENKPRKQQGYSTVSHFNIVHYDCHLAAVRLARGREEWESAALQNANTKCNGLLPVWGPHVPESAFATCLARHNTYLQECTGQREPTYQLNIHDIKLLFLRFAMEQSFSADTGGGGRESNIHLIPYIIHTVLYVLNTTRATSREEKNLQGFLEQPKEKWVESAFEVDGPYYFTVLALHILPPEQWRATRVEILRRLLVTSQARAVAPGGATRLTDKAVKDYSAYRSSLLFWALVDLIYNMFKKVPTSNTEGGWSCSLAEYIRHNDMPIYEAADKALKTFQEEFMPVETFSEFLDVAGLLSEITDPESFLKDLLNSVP
Substance,stoichiometry N [1],stoichiometry N (human UBR4 (human))
"C. elegans UBR4, A0A0S4XR36 1-4218",2,–
"human UBR4, Q5T4S7 1-5183 (enzyme)",–,2
